Source: publication PMC5830921, “A single N‐terminal phosphomimic disrupts TDP‐43 polymerization, phase separation, and RNA splicing” (The EMBO Journal, 2018)
Positions count from the first letter of the chain named. In names and notes the source's numbering stands.

B1: TDP-43 N-terminal domain (NTD), wild-type, residues 1-80 (domain or fragment)
chain: GHMMSEYIRVTEDENDEPIEIPSEDDGTVLLSTVTAQFPGACGLRYRNPVSQCMRGVRLVEGILHAPDAGWGNLVYVVNYPKD
notes: three additional N-terminal residues left by the cloning strategy and TEV cleavage; TDP-43 N-terminal domain, residues 1-80 (codon of N81 changed to a stop codon); 15N-labelled or natural abundance, depending on the NMR experiment; also called TDP-43 NTD; NTD WT; source: E. coli BL21 Star DE3, purified (Histrap, TEV cleavage, SEC); not shown: Thioredoxin, N-terminal, cleaved; His6, N-terminal, …
B2: TDP-43 NTD S48E, residues 1-80 (domain or fragment)
chain: B1 chain with S51E
notes: three additional N-terminal residues left by the cloning strategy and TEV cleavage; TDP-43 N-terminal domain, residues 1-80, phosphomimetic S48E; 15N-, 13C/15N-labelled or natural abundance, depending on the NMR experiment; also called S48E TDP-43 NTD; S48E 1-80 NTD; source: E. coli BL21 Star DE3, purified (Histrap, TEV cleavage, SEC); not shown: Thioredoxin, N-terminal, cleaved; His6, …

Columns and labels:
[1] = molecular target: the molecule itself; experiment: cross-linking; amine cross-linker BS3, 20 mM HEPES pH 7.5, 150 mM NaCl, 1 mM DTT, room temperature 30 min, SDS-PAGE; samples of 10-200 μM
[2] = molecular target: the molecule itself; experiment: AUC; sedimentation equilibrium, 28.28-89.23 μM, 150 mM NaCl, 20°C, 12,000, 25,000 and 43,000 rpm; isodesmic model, single KD for each association step
[3] = molecular target: the molecule itself; experiment: CG-MALS; composition gradient multi-angle light scattering, 20 mM HEPES pH 6.8, 150 mM NaCl, 1 mM DTT; isodesmic self-association model, each addition of a monomer
[4] = molecular target: B1; experiment: NMR titration; 1H-15N HSQC chemical shift deviations of 10 μM 15N-labelled protein with 90 μM natural abundance partner, against 10 μM alone; settings: both partners purified
[5] = molecular target: TDP-43 NTD S48E, residues 1-80 (UniProt Q13148); experiment: CG-MALS; composition gradient multi-angle light scattering, 20 mM HEPES pH 6.8, 150 mM NaCl, 1 mM DTT; isodesmic self-association model, each addition of a monomer

| Binder | stoichiometry N [1] | Kd [2] [µM] | Kd [3] [µM] | binding result [4] | Kd [5] [µM] |
| --- | --- | --- | --- | --- | --- |
| B1 | ≤ 7 | ~40 | 95 |  |  |
| B2 |  |  |  | binds | 2000 |
